Target: HSP90β (human) (UniProt P08238)
Test: cryo-EM structure; HSP90–CDC37–BRAF^V600E complex incubated with PP5 D274N, purified by SEC, cross-linked with 1 mM BS3; one sample gave three classes: HCK (3.4 Å), HCK-P open (4.2 Å), HCK-P closed (3.9 Å); PP5 modelled by rigid-body docking

stoichiometry N: 2
Substance: HSP90β, P08238 1-724 (natural protein; phosphorylation at Ser226 and Ser255 found by mass spectrometry; phosphorylation at Ser226 and Ser255 found by mass spectrometry; other documents disagree on this pair)
